{"source": "paper PMC5114699", "origin": "cited, not measured here", "target": "Glu148 (UniProt position 148, MVLGREGPTVQ)", "data": [{"substance": "ClC-ec1 Cl-/H+ antiporter (H(+)/Cl(-) exchange transporter ClcA) (Escherichia coli)", "values": [{"measurement": "pKa", "value": 6.2}]}]}
